Measurements as given in the DeepSol protein solubility set.

Experiment: soluble on expression in E. coli; label from the status in PepcDB or PDB records

Sequence	soluble on expression in E. coli
MQTLLLALFSLAMVQAMRDQSIAVKGRLICGDKPAANVRIKLWEEDSGPDPDDLLEAGYTDSNGEFQLSGGEAELTPIDPIFKVYHDCDDKYIPGHRKVKFLIPKSYITQGKTPKKTFDLGVLNLETIFPKEERELIVSRKRRHHPKQYINEEDSF	not soluble
MAQNLIFITIALVAIVNAGPGEEREKGPGEHKRGGKHHGFPSFFGNVSAEGRKEIAVVFKNENLTLAQADTQIASLAEKYGFAAAYKEHKEKEAVRQAETKKNTTTVINNLSSVATKLSAIRENKDQTRKAQHEAIEALRNENGVEVDTIEFIAKRSRGFGGRHGGRKGGKGGKHFGKKNGDKKRGPHGGDEEGKKTKEAAQ	not soluble
MSDTPSKKQKRRATIFVTGPQSKKTIFEGEEIKEEGNQTTLQDLAIARQRLHNELAVVNTTSGIEILMQIVMDELEVVRHRLRENGQRMRNFFGDGAVQIRAILIRIFSKSISSRNMLEYKKDAKVILNELCDQNITYKMPRYTLNDMEEILLTDDLEDGVIQRRSEKWECLPERQKPMFDEDEDAFCEFRKMNVPMSMTFDDDDEDRLSMPSTRTGVTALTTEDQMAAIQNQLAMLSKQLMCLQKSGVETKRASSRASSRRGGIIAKKASLEISSNSSSDVSEDEGKGPSVCSPSSSSKTSTASVQLAPMCMAPPPPPPPPLPKMSQKIPLSEIKSDNKLSTVTPSKPAEKKSSPKSLPPAETIVSNRPYLTDIAHGRSMLKKTVRSPGGSPACQVRHQKRPVSSFEAALRDRFRGFHGDASFSEQEENGEDDDLSATWDE	not soluble
MSFSESRHNENCLIQEGALLFCEQAVVAPVSGDLVFRPLKIEVLSKLLAFIDGAGLVDTTYAESDKWVLLSPEFRAIWQDRKRCEYWFLQQIITPSPAFNKVLALLRKSESYWLVGYLLAQSTSGNTMRMLGEDYGVSYTHFRRLCSRALGGKAKSELRNWRMAQSLLNSVEGHENITQLAVNHGYSSPSHFSSEIKELIGVSPRKLSNIIQLADK	not soluble
MGSDKIHHHHHHMSEAMQLTLPKSGSIEAYMQSAYSIPMLTAEKEHDLATRLYNENDLQAAQELIMSHLRFVIHVAKGYSGYGLPHADLVQEGNVGLMKAVKRFNPEVGVRLVSFAVHWIKAEIHEFVLKNWRIVKVATTKAQRKLFFNLRKNKKRLGWFSTEEVNTVAENLGVTTKDVMEMESRMSSHDQAFELSKDDDDNLGSSSFSPAQYLQDKQSDLAVEVENDNWDNHANKRLSTALVTLDERSQDIIKTRWLTEDKTTLQELANKYQISAERVRQLEKNALSKLKNTMVFD	not soluble
ASPNSPKDNTWIQAASLTWLMDMSSLLYQLISTRIPSFASPNGLHMREQTIDSNTGQIQIDNEHRLLRWDRRPPNDIFLNGFIPRVTNQNLSPVEDTHLLNYLRTNSPSIFVSTTRARYNNLGLEITPWTPHSANNNIIYRYEIFAPGGIDINASFSRNHNPFPNEDEITFPGGIRPEFIRSTYEYHNGEIVRIWINPNFINPSTLNDVSGPSNISKVFWHENHSEGNNMDSKGFILDLDYNQDFDMFAPNGEIPNNNLLNNNSLNVIQNSEYQIKNKKDRNIVVTLDSDYGGSPVESYKNFGFENQKWNIKYDSKKNAYKIYNRETPTLLLSWNSNSSNGEQVIRGYTESGSNNQYWTIEKNVNGFYKFRNLSDPSKILDLKDGNTLNKTPLVVSSENSSSSQEWLIEKTNYQTVKDGTYQVSSKLNENKVIEQISTNKVHIFSNSDKENQVWNLIYNPILKAYKIKSLKYPNYSLAWDSNNTRTIVAATGDYNDQYWLIERNEDNTYIIRNYENRKIVLDLSNGSTTDGNGLLGFEFHGGINQRWIIKPFSFNSIQDGIYQFMTVINQDLIADLTTNNYTIATKTNNYSSNQKWTVTYNDKKRAYKIRNLQHAHLSLAWDSNHSDKIFGATGDYDDQYWIPILQTDGSFIFRNYKNPNKIFGTNGQPINDIPLKAQDVTGQNNQKWYLRHLNSSNNFTGYFNISSKKNFNKIITMNSNKTQAVIFDNIGINNQSWKLKYNDNKNAYQIHILDNFLYFQGGHNIVATMRNVTNDDLRSYWYVEYNFNKDGFIIRNAFDTSYVLDVFQGNFANNTPIITYQNYLNDNQLWNFIPSLGVEPR	soluble
MISVTLSKIADVLGAEHRGADLTLDTVITDTRKVTPGCLFVALKGERFDAHDFADKAKANGAGALLVSRPLDIDLPQVIVKDTRQAFGQLAAWVRMQVPARVVALTGSSGKTSVKEMTAAILSQCGNTLYTAGNFNNDIGVPITLLRLNHDYDYAVIELGANHQGEIAWTVSLTRPEAALVNNLAAAHLEGFGSLAGVAKAKGEIYTGLPENGIAIMNADNNDWLNWQSIIGDRLVWRFSPNAANSDFTAANIHVTSHGTEFTLQTPMGSIDVLLPLPGRHNIANALAAAALSMAVGATLTAIKAGLAALKAVPGRLFPIQLSENQLVLDDAYNANVGSMTAAVQVLSEMPGYRVLVVGDMAELGAESEACHLQVGEAAKAAGIDRVLSTGKLSQAISHASGVGEHFADKAALIARLHALLQEQPMMTILVKGSRSAAMEDVVHALQEKGSC	not soluble
MSLDEGLLNKVKERGTLLVGLEGTYPPFSFQGDDGKLTGFEVEFAQQLAKHLGVEASLKPTKWDGMLASLDSKRIDVVINQVTISDERKKKYDFSTPYTISGIQALVKKGNEGTIKTADDLKGKKVGVGLGTNYEEWLRQNVQGVDVRTYDDDPTKYQDLRVGRIDAILVDRLAALDLVKKTNDTLAVTGEAFSRQESGVALRKGNEDLLKAVNDAIAEMQKDGTLQALSEKWFGADVTEGHHHHHH	soluble
TDINSLRTRLRSGEHAFADTLAFIADGYDYQPQPFRNGDVDNAAGQNEGSCKTLGLALLEGLSDEEALLAFGEHYRSVQATPEGSDHGNIRALIKHGLAGVTFEGEPLKRK	not soluble
MFPVSSIGNDISSDLVRRKMNDLPESPTGNNLEALAPGIEKLKQTSIEMVTLLNTLQPGGKCIITGDFQKELAYLQNVILYNVSSLRLDFLGYNAQIIQRSDNTCELTINEPLKNQEISTGNININCPLKDIYNEIRRLNVIFSCGTGDIVDLSSLDLRNVDLDYYDFTDKHMANTILNPFKLNSTNFTNANMFQVNFVSSTQNATISWDYLLKITPVLISISDMYSEEKIKFVESCLNEPGDITEEQLKIMRFAIIKSIPRATLTDKLENELTKEIYKSSSKIINCLNRIKLTEMKEFSSEKIYDYIDIIIEDYENTKENAYLVVPQINYTMDLNIEDSSSEELLSDNTLEKDENSPDNGFEVGEYNTYEAYNSEKQYFTREDYTYDYDLLNAI	not soluble
MSLDVTDAQAIADHWGRGDVFGLIVAALNQMAKPLDGLTVEELAPVDHFHSRGFPATVEFADRLPINAGEQILDIGCGLGGPARYMAKRFQCRVSGIDITGPFVEAANRLTALLHMEQQVEIAQGNGQRLPYPDSCFDGAYTQDVTMNVAERAGFFAEAYRVLKPGAFFALSEHGLGPQGKPHYPVPWSDDGTGAYLTAPAETRAILERTGFEAITVEDTGAKCVAGYGKVIERAEKGALPPLGLHLFMGESMVEKMRNAARNIEEGRTHPIQLICRKEGHHHHHH	soluble
MSLNILILHRVRYVDVLYHQSIDHELHNVYYIGIEENLNEIPADLRCTKIVRPGVDAVHKEVLEQIENLDVCFDHVVSINEFELIEAALIREKLNIAGPKVADVEKVRNKIVMKHCVGAVNIRIPQYMSLSDFMNSERLAIPPSSQVILKPLDGASSVDVVKFDSQKVLEQALIDRTTGIVALDKETPERIENFEVEEFVSGPVLHIDGMIRNGQIEMIVVSQYINTLLDFANGYPAGSVQLETTEEMKTWALQILNAVDISLGAFHLEAIQTDTGPVFLEIAHRIGGARIAETLTLQTGIHPSILELGLLLDPDFKFELNYDTGYKYAWFIVPGHQLPGNYGLVSGHEFLYGKEEVVMLNQLTMQQPLVKAVTYKESEIPLAGLLKAKSAKELTDLIDRLFGQLQLISVDTPLPYSECMPQKKKHVLVIGNIRQPHKTLEAQGYAISWMYKKVPNFTHTTEDHNRCERILMYSNESAIQLISLARSIDQLQKIDSVVSFHDGAQLDALTIANALELPFSLSMGAIVNTRDKQLSRRILREKNLTEVQSAIAENEQDLHDFFKIYPQVNKVIVKPVAGTGSENVRSLESKELETANLDNVYPVLVEQFVEGREFSVEAFMQEGKCHIFAITEKFKDAQSFIETGHLVPARLSSDEHEKIAAFIAKVLPALGVVSGITHSEIMLGEKIELIETHTRVGGDRIFDLVQMTTGIDMYRLQALQSLGLPIGEDELTPKLNGKHACIKFKLNDHPGKKVIRVNGEEEIKNWSGVEDVSITHQAGEVLPQIVNSFDRSASVLVLCDSSEQALSIAEEAIQKLEFVVGEGHHHHHH	soluble
SLAHVGTWDWDITNETLAWTDETYRIFGVKPQEFKATYEAFLFYIHADDRQAVIDAVNDAINNDSSYSIKHRVIRPSGEIREVLEKGQVLRDENGKASRIIGAVLDIT	not soluble
MQLIPFEIPGILVGRFEKCSDNKREDERQRISLLLRRVFPHDTPQIGHLPSGKPILDSAHNISISHTGSYGAIYVTPSSLIPGIDIEMLSDRALRVAPRFMNEREYEWLMSADEARRRLLATIIWSAKETAYKIFNPSDASLKRFDVALPFELPSENTLFSFELIYSDSCTGDIHIPVQALCTGEFILTCACHCSHSR	not soluble
MKKSITTLDLNLLLCLQLLMQERSVTKAAKRINVTPSAVSKSLAKLRAWFDDPLFVNSPLGLSPTPLMVSMEQNLAEWMQMSNLLLDKPHHQTPRGLKFELAAESPLMMIMLNALSKQIYQRYPQATIKLRNWDYDSLDAITRGEVDIGFSGRESHPRSRELLSSLPLAIDYEVLFSDVPCVWLRKDHPALHQTWNLDTFLRYPHISICWEQSDTWALDNVLQELGRERTIAMSLPEFEQSLFMAAQPDNLLLATAPRYCQYYNQLHQLPLVALPLPFDESQQKKLEVPFTLLWHKRNSHNPKIVWLRETIKNLYASMA	soluble
MGSDKIHHHHHHMWDWIGKLDELRRSNQLAVLVTVTKSSGSTPRKHGAKMIVLPDGTFYGTVGGGTPEYYALEDARACFETMQSTTSSVPLKQRGEFPACGGTMEFYMEVINDNPVLHLFGAGHIGQSLCQILDGTPFRIHLIDEREEWINAPNLPGSVIRHQRHYSDFIEKAIWCDKRTFVAIQTFSGTLDQQVLEEVLPNPTRYVGMIGSKAKWAKVRSNLEEKGLDLSAVRCPIGHDNGGNSPREIAISIASQLLSTYYGRE	not soluble
MSLSKIIFPGFIDLHNHFPQTQVIASYGTKLLEWLNKYTFPNESLFVDDKHCERESKIFLDLLNHNGITTSVSFGSVHPNSVEYLFQEAHRRNMCVIAGNVLMDRNAPDTVLEKADKSYLSSKEIISKWHNVSRCKYAITPRFAITSTPELMEVSQTLCAENQSCYVQTHLSENIDEIETTLELFPDQKDYLSIYDKYKLLSNKTLLAHSIHLEMSEIERMKETKSIAVHCPTSNLFLGSGLFKFKELEEKGVRTAIATDVGGGTSFSMLRTLDEAYKVQQLGNYSLNPLASYFWSTMEGHHHHHH	soluble
MSHGSPAPSASVSSDGEEPEIDVMPSSDEESEPIYIPKEKEPVVIRGVGNITVFGMNSRFNTEYPPELTGYIAPEELSATLSRVNSVLKRHVQTSSRWLLCGLAFCCCSIGCSMWPVLCLNRRTVLALEKCLDHENVSLYHKLGLHWSLARRPTEPSDRLTEYVLELKTLPKPALNLPD	not soluble
MGSDKIHHHHHHMIDVENILEKMKPNQKINYDWVMQQMVKQWQASDIRPKILMHVCCAPCSTYTLEYLSQWADVTIYFANSNIHPKDEYYRREYVTQKFVHDFNKNTGYSVQFLSAPYEPNEFFKIVHGLEEEPEGGDRCKVCYDFRLDKTAEKAVELGFDYFGSALTISPHKNSQTINTIGIDVQKIYDTQYLPSDLKKNKGYQRSVEMCKDYDIYRQCYCGCIFGAKDQGINLLQIKKDAKAFVSDKDGKEEFPNIRFTFNGKSM	not soluble
